Source: US20240091382A1, “MINIMAL BILE ACID INDUCIBLE PROMOTERS FOR GENE THERAPY” (priority 2020, published 2024)

test system: Huh-7 cells; assay: Luciferase expression from BSEP-derived promoter plasmids in Huh-7 cells (FXR co-transfection, CDCA induction); assay type: cell-based, human; conditions: Huh-7, pCMV-hFXRα2, 30 μM CDCA
Procedure: FIG. 2. […] In all cases, cells were also transfected with a Renilla expressing plasmid (pRL-CMV). Luciferase and Renilla expression were measured with a luminometer. All samples were tested in triplicates and data are presented as mean±SEM of relative (rel.) units (Luciferase units sec^−1/Renilla units sec^−1). The fold induction of each condition relative to cells transfected only with the luciferase plasmid (Luc plasmid) is indicated on top of each column. The statistical comparison between these two conditions was performed by using an unpaired […] T test. *, p<0.05; **, p<0.01; ***, p<0.001. imPr and ihPr, pAAV-imPr-LucPEST and pAAV-ihPr-LucPEST, respectively; full length mPr, pAAV-mBSEPpr-LucPEST; full length hPr, p-2563/+4-Luc; A1AT, pAAV-A1AT-LucPEST.
FIG. 18. […] In all cases, cells were also transfected with the same amount of Renilla expressing plasmid (pRL-CMV) to determine the transfection efficiency. Luciferase and Renilla expression were measured with a luminometer. All samples were tested in triplicates and data are presented as mean±SEM of relative (rel.) units (Luciferase units sec^−1/Renilla units sec^−1). The fold induction of each condition relative to cells transfected only with the luciferase plasmid (Luc plasmid) is indicated on top of each column. The statistical comparison between these two conditions was performed by using an unpaired T test. *, p<0.05; **, p<0.01; ***, p<0.001; ****, p<0.0001.
The inventors first tested whether luciferase expression could be induced by bile salts in hepatic cells from human (Huh-7 and HepG2) and mouse origin (Hepa1-6). For this purpose, they transfected confluent monolayers of these cells in 12-well plates with 0.5 μg pAAV-miPr-LucPEST or pAAV-hiPr-LucPEST plasmids, or with the same amount of control plasmids (pAAV-mBSEPpr-LucPEST, p-2563/+4-Luc and pAAV-A1AT-LucPEST), together with 0.5 μg of plasmids expressing either human FXRα1 (pcDNA3.1-hFXRα1, ordered from GenScript) or FXRα2 (pCMV-hFXRα2, ref NR1H4 cDNA Resource Center, Bloomsburg, PA), two isoforms of FXR that can exert different transcriptional regulation). […] Furthermore, to normalize luciferase expression, and correct for differences in transfection efficiencies, the inventors also co-transfected cells with 0.2 μg of a plasmid expressing Renilla-luciferase from a constitutive promoter (pRL-CMV, Promega). All transfections were performed using lipofectamine 2000 (Thermo Fisher). […] After induction, cells were collected and luciferase and Renilla expression were measured in cell extracts using an Orion L Microplate Luminometer.
The inventors tested luciferase expression of plasmids containing the variants of imPr promoter in Huh-7 cells as described above. Briefly, the inventors transfected confluent cell monolayers in 12-well plates with 0.5 μg of each of the corresponding plasmids, using as control pAAV-miPr-LucPEST, together with 0.5 μg of pCMV-hFXRa2 using lipofectamine 2000. To normalize luciferase expression, the inventors co-transfected cells with 0.2 μg of a plasmid expressing Renilla-luciferase from a constitutive promoter (pRL-CMV). […] After induction, cells were collected and luciferase and Renilla expression were measured in cell extracts as described.

Molecule	level of luciferase expression compared to plasmid containing imPr promoter	luciferase expression compared to imPr+1xIR
imPr+1xIR: imPr variant with one extra repeat of the murine IR-1 element at the 5′end (SEQ ID NO: 6) (nucleic acid, Synthetic imPR+1xIR) DNA: TTAGGCCATTGACCTAGGTTCCTGCTTTGAGTATGTTCGACCTTTCCTCTCATGTCACTGAACTGTGCTAGATCTGGACTTTAGGCCATTGACCTATAAGCAAATAGATAGTGTTCTTAAAAAAGCCTGATTTCTGTTCAATGCTTTATTACCATGAAAACTGAACTTGGAAAGGGGTGTACAACCCTGACTTTCCACAGTGGCGTCTCTCGCTTCTCCTGGCTCCCTCAAATTCACA	significantly higher level of luciferase expression	
imPr+3xIR-ER2: imPr variant with three repetitions of the IR-1-ER2 element (SEQ ID NO: 20) (nucleic acid, Synthetic imPr+3xIR-ER2) DNA: TGGACTTTAGGCCATTGACCTATGGACTTTAGGCCATTGACCTATGGACTTTAGGCCATTGACCTAGGTTCCTGCTTTGAGTATGTTCGACCTTTCCTCTCATGTCACTGAACTGTGCTAGATCTGGACTTTAGGCCATTGACCTATAAGCAAATAGATAGTGTTCTTAAAAAAGCCTGATTTCTGTTCAATGCTTTATTACCATGAAAACTGAACTTGGAAAGGGGTGTACAACCCTGACTTTCCACAGTGGCGTCTCTCGCTTCTCCTGGCTCCCTCAAATTCACA	not observed	
imPr+LRH-1: slightly longer imPr variant including the upstream LRH-1 element (SEQ ID NO: 21) (nucleic acid, Synthetic imPr+ LRH-1) DNA: TTTCTAAAGCTTGTTGATACCCTCAGAAGGTCCCCACGCACTCTGGGTTTGGGTTCCTGCTTTGAGTATGTTCGACCTTTCCTCTCATGTCACTGAACTGTGCTAGATCTGGACTTTAGGCCATTGACCTATAAGCAAATAGATAGTGTTCTTAAAAAAGCCTGATTTCTGTTCAATGCTTTATTACCATGAAAACTGAACTTGGAAAGGGGTGTACAACCCTGACTTTCCACAGTGGCGTCTCTCGCTTCTCCTGGCTCCCTCAAATTCACA	not observed	
imPr+3xIR: imPr variant with three extra repeats of the murine IR-1 element (SEQ ID NO: 7) (nucleic acid, Synthetic imPR+3xIR) DNA: TTAGGCCATTGACCTATTAGGCCATTGACCTATTAGGCCATTGACCTAGGTTCCTGCTTTGAGTATGTTCGACCTTTCCTCTCATGTCACTGAACTGTGCTAGATCTGGACTTTAGGCCATTGACCTATAAGCAAATAGATAGTGTTCTTAAAAAAGCCTGATTTCTGTTCAATGCTTTATTACCATGAAAACTGAACTTGGAAAGGGGTGTACAACCCTGACTTTCCACAGTGGCGTCTCTCGCTTCTCCTGGCTCCCTCAAATTCACA	significantly higher level of luciferase expression	significantly higher luciferase expression than imPr+1xIR
imPr+5xIR: imPr variant with five extra repeats of the murine IR-1 element (SEQ ID NO: 19) (nucleic acid, Synthetic imPR+5xIR) DNA: TTAGGCCATTGACCTATTAGGCCATTGACCTATTAGGCCATTGACCTATTAGGCCATTGACCTATTAGGCCATTGACCTAGGTTCCTGCTTTGAGTATGTTCGACCTTTCCTCTCATGTCACTGAACTGTGCTAGATCTGGACTTTAGGCCATTGACCTATAAGCAAATAGATAGTGTTCTTAAAAAAGCCTGATTTCTGTTCAATGCTTTATTACCATGAAAACTGAACTTGGAAAGGGGTGTACAACCCTGACTTTCCACAGTGGCGTCTCTCGCTTCTCCTGGCTCCCTCAAATTCACA	not observed	
